Test: yeast display, Sf9 membrane polyspecificity reagent, FACS + sequencing; frameworks hold sequencing errors
Procedure, shortened: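 Genes from sorted yeast were amplified by colony PCR, read by MiSeq 2 × 250 sequencing and filtered on CDR length. These cells carried a synthetic nanobody library in Saccharomyces cerevisiae BJ5465 and were sorted by FACS into low and high (top ~1%) gates on anti-HA and streptavidin fluorescence. Polyreactivity is labelled according to the gate of origin.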

Row | Sequence | polyreactivity (PSR sort gate)
1 | QVQLVESAGGLVQAGGSLSLSCAANGFTFTYYTMGWYRQAPGKERELVAAITENGGSTYYADSVKGRFTISRDNAKNTVYLQMNSLKPEDTAVYYCNARVWDYGGHGYDYWGQGTQVTVSS | low polyreactivity
2 | QVQLVESAGGLVQAGGSLSLSCAASGRIFNLYAMGWYRKAPGKERELVAAIRGRGTSTYYADSVKGRFTISRDNAKNTVYLQMNSLKPEDTAVYYCAREGGYGPTLQDTSRYEYWGQGTQVTVSS | low polyreactivity
3 | QVQLVESAGGLVQAGGSLSLSCAASGRTFVIYAMGSDRQAPGKERELVAGIDSGTSTYADSVKGRFTISRDNAKNTVYLQMNSLKPEDTAVYYCAADFAPDGAGWYIPGDYDSWGQGTQVTVSS | low polyreactivity
4 | QVQLVESAGGLVQAGGSLSLSCAASGRTFVIYAMGWYRKAPGKERELVAGIDSGTSTYADSVKGRFTISRDNAKNTVYLQMNSLKPEDTAVYYCAADFAPDGAGWYIPGDYDSWGQGTQVTVSS | low polyreactivity
5 | QVQLVESAGGLVQAGGSLSLSCAASGSTFAGYVMGWYRQAPGKERELVAAISRSGGSTYYADSVKGRFTISRDNAKNTVYLQMNSLKPEDTAVYYCAARNSPGLPGDYWGQGTQVTVSS | high polyreactivity
6 | QVQLVESAGGLVQAGVSLRLSCAASGRTFVGNAMGGYRQAPGKERELVADITWSGDITYYADSVKGRFTIARDTAKNTVYLQMISLKPEDTAVYYCAADYHRRLTDYDYWGQGTQVTVSS | low polyreactivity
7 | QVQLVESAGGLVQAVGSLRLSCAASGRICGIYAMGWYRQAPGKERELVAAISFIGGRTYYADSVKGRFTISRDNAKNTVYLQMNSLKPEDTAVYDCAARTVPSSRREYWGQGTQVTVSS | high polyreactivity
8 | QVQLVESAGGLVQEGGRLRLSCAASGITLGAYAMGRYRQAPGKEREMVARIRIGGSKYYADSVKGRFTISRDNEKNTVYLQMNSLKPEDTAVYYCATRWQEYAGDYWGDYWGQGTHVTVSS | low polyreactivity
9 | QVQLVESAGRLVQAGGSLRLSCAASGSTFYSYAMGWYRQAPGKEREFVAAITYSDGITYYADSVKGRFTISRDNAKNTVYLQMNSLKPEDTAVYYCAKAPIWGVTRKFDYWGQGNQVTVSS | high polyreactivity
10 | QVQLVESAGRLVQAGGSLRLSCAPSGSIFSHNAMGWYRPAPGKERELVAAISRSGGSTYYADSVKGRFTISRDNAKNTVYLQMNSQKPEDTAVYYCNALGRISNHTLYDYWGQGTQVTVSS | low polyreactivity
11 | QVQLVESAGVLVQAGGILRLSFAASGINFPYYAMGWYRKAPGKERELVAAISSSGGSSYYADSVKGRFTISRDNAKNTVYLKLNILKPEDTAVYYCAAHRYINYEYWGQGTQLTVSS | high polyreactivity
12 | QVQLVESCGCLVQAVGSLRLSCAASGRIFGWYAMGWDRQAPVKERELVAAISSARRTYYADSVKGRFTISRDNAKNSVYLQMNSLKPEDTAVSYCAAYYYNDRMYYWGQGNQVTVSS | high polyreactivity
13 | QVQLVESCGGLVQAGCSLRLSCAASGRIFSTNAMGWYRPAPGKERELVAAISSSGSRTYLADSVKGRFTISRDNAKNTVYLQMNSLKPEDTAVYFCNALRNYHHYEYDYWGQGTQVTVSS | high polyreactivity
14 | QVQLVESCGGLVQAGGSHRLSCAASGRIFGVYVMGWYRQAPGKERELVAAISWSCSHTYYADSVKGRYTISRDNAKNTVYLQMNSLKPEDTAVYYCNADSYPDYTGPGLDWYDYWGHGTQVTVSS | low polyreactivity
15 | QVQLVESCGGLVQAGGSLLLSCAASGGTFCDYAMVWYRQAPGKEREFVASITRSVSDTYYADSVKGRFTISRDNAKNTVYLQINSLKPEDTAVYYCKADRWYPWRSIMDYWGQGTQVSVSS | low polyreactivity
16 | QVQLVESCGGLVQAGGSLRLSCAASGFIFSQNAMGWYIQAPGKEREIVAVISARGGRTYYADSVKGRFTISRDNAKNTVYLQMNSLKPEDTAVYDCARRDFWWSRRIFGYWGQGTQVTVSS | high polyreactivity
17 | QVQLVESCGGLVQAGGSLRLSCAASGFTFPYYTMGWYRQAPGKERELVATITGGGSTNYADSVKGRFTISRDNAKNTVYLQKNSLKPEDTAVYYCAAKRWSGYGYYGWYDYWGQGTQVTVSS | high polyreactivity
18 | QVQLVESCGGLVQAGGSLRLSCAASGFTFRNYVMGWYRQAPGKERELVAAISSTGGSTYYADSVKGRFTISRDNAKNTVYLQMNSLKPEDTAVYYCAARYVVQWPRYGFDYWGQGTQVTVSS | high polyreactivity
19 | QVQLVESCGGLVQAGGSLRLSCAASGLIFRPNAMGWYRQAPAKERELVAAISGGGGSTYYADSVKGRFTISRDNAKNTVYLQMKSLKPEDTAVYYCNARKLVNRYPVIGVETYDYWGQGTQVTVSS | low polyreactivity
20 | QVQLVESCGGLVQAGGSLRLSCAASGLTFYRYAMGWYRQAPGKERELVAAISSADRTYYADSVKGRFTISRDNAKNTVYLQMNSLKPEDTAVYYCAARANYFGWTKSYYYWGQGTQVNVSS | high polyreactivity

Row | Sequence | polyreactivity (PSR sort gate)
21 | QVQLVESCGGLVQAGGSLRLSCAASGLTYRYYAMGWYRKAPGKERELVAAITSSGTSTYYADSVKGRFTISRDNAKNTVSLQMNSLKAEDTAVSYCAVRQSQKYGLFYYGGQGTQVTVSS | high polyreactivity
22 | QVQLVESCGGLVQAGGSLRLSCAASGRNIWDYGMVWYRQAPGKERELVAVITWGGGSTYYADSVKGRFTISRDNAMNTVYLQMNSLKPEDSAVYYCAKEYHYYYWGQGTQVTVSS | low polyreactivity
23 | QVQLVESCGGLVQAGGSLRLSCAASGRTFRYYAMGWYRQAPWKERELVAAIRRGGSTTYADSVKGRFTISRDNAKNTVYLQMNSLKPEDTAVYYCAARYPGTRGDGYWGQGTQVTVSS | high polyreactivity
24 | QVQLVESCGGLVQAGGSLRLSCAASGSIFAYYAMGWYRQAPGKERDLVAAISRGGGSTYYADSVTGRFTLSRDNAKNTVYLQMNSLKQEDTAVYYCDAYYAKGRAYDYDYWGQGTQVTVSS | high polyreactivity
25 | QVQLVESCGGLVQAGGSLRLSCAASGSIFGWYAMGWYRQAPGKESELVAAISTSTGSTYYADSVKGRFTISRDNAKNTVYLQMNSLKPEDTAVYYCAVVVAGVFLWGVERYDYWGQGTQVTVSS | low polyreactivity
26 | QVQLVESCGGLVQAGGSLRLSCAASGSTFRYNAMGWYRQAPGKERELVAAISWSGGSTYYADSVKGRFTISRDNAKNTVYLQMNSLKPEDTAVYYCAKVYFWGALSPDKFDEDYWGQGTQVTVSS | low polyreactivity
27 | QVQLVESCGGLVQAGGSLRLSCAASGSTFYLNAMGWYRQAPGKERELVAAIDYRGGSTYYADSVKGRFTISRDYAKNTVYLQMNSLKPEDTAVYYCAKDRPGFLVGWGGGYDYWGQGTQVTVSS | low polyreactivity
28 | QVQLVESCGGLVQAGGSLRLSCADSGLTMYGYARGWYRHAPGNERELVATLTRRGGSTYYADSVKGRFTISRDNAKNTVYLQMNSLKPEDPAVYYCAATYQHQNPQGVFSGGYYYWGQGTQVTVAS | high polyreactivity
29 | QVQLVESCGGLVQAGGSLRLSCAPSGSTIPPNAMGWNRQAPRQERELVADSSDSSTSYADSVKGRFSISRDNAKNTVYLQMKSQKPEDTAVYYCAAADAGLRSKSYGQQYDYWGQGTQVTVSS | low polyreactivity
30 | QVQLVESCGGLVQAGGSLRLTCAASGSTFNWYTMGWYRQAPGKDRELVAAMSRGTGSTYYADSVKGRFTMSRDNANNRVYVQMNSLKPEDTAVYSCAKQGYRYSSFLYDYWGQGTQVTVSS | low polyreactivity
31 | QVQLVESCGGLVQAGGTLRLRCAASGFTFYPYSMGWYRQAPWKERELVAAITRGGITYYADSVKGRFTISRDYAKNTVYLQMKSLKPEDTAVYYCNAGWYVSYRWYRSDYWGQGTQVTVSS | high polyreactivity
32 | QVQLVESCGGLVQAGSSLRLSCAASVITFYGYAMGWYRQAPGKERELVADITRGGSTNYADSVKGRFTISRDNAKNTVFLQMNSLKPEDSAVYYCAKSTRRFSWYYSTVGYNYWAQGTQVTVSS | high polyreactivity
33 | QVQLVESCGGLVQEGGSLRLSCAASGRIFVVSAMGRYRQAPGKERELVAAISKRGGSTYYADSVKGRFTISRDNAKKTVYLQMNSLKPEDTAVYYCAKSRLVRGRSSYDYWGHGTQVTVSS | high polyreactivity
34 | QVQLVESCVGLVQAGGSLRLSCAASRSTFDSYAMGWYRQAPGNEREMVASITSRGGRTYYADSVKGRFSISRDNAMNTVYLEMNSLKPEDTAVYYCNAYRRKYYYYQRHGFWGQGTQVTVSS | high polyreactivity
35 | QVQLVESCVVLVQAAGSLRLSFAHSGSTFKVYAMGTYRQATGKERELVASISSGGSTNYADSVKGRFTISRDNAKNTVYLQMNSLKPEDTAVYYCALRRYTHRRYRFDYWGQGTQVTVSS | high polyreactivity
36 | QVQLVESGAALVQAAGSLRLSCAASGSIFTPYAMGWYRQAPGKERELVAGIRSSGGRTYYADSVKGRFTISRDNAKNTVYLQMNSLKPEDTAVSYCAADQDWYGFVIGFDYWGQGTQVTVSS | low polyreactivity
37 | QVQLVESGACLVKAGGSLRLSCAASGSSFYGYAMGWYRQAPGKERELVASITVSVGSTNADSVKGRFTISRDNAKNTVYLQMISLKPEDTAVYYCAAETVHSREQREGDYWGQGTQVSVSS | low polyreactivity
38 | QVQLVESGACLVQAGGSLRLSFAASGSIFGWYTMGWYRPAPGKERELVAAISNSGTSSYYADSEKGRFTISRDTAKNTVYLQMNSLKPEDTAVYYCNAYSDLFGSYTDLGEYDYWVQGTQVTVSS | low polyreactivity
39 | QVQLVESGAGFFQAGGSLRVSCAASGRTFPVYAMGWYRHAPGNERELVARINSGGRTTYADSVKGRFTISRDNAKNTVYLQMISLNPEDTAVYYCNARSWYYVWRKGYRHGDYWGQGTQVTVSS | high polyreactivity
40 | QVQLVESGAGIVQAGGSLRLSCAASGRTCTWYAMGWYTQAPGKERELVAAISKSGGSTYYADSVKGRFTISRDTAKNTVFLQMNSLKPEDTAVYYCNADFYGYFLGYGYWGQGTQVTVSS | low polyreactivity

From the nanobody polyreactivity screen of Harvey et al. (2022)
